B1: SH3 domain-binding protein 2 (Mus musculus), Q06649 (parent)
chain: MAAEEMQWPVPMKAIGAQNLLTMPGGVAKAGYLHKKGGTQLQLLKWPLRFVIIHKRCIYYFKSSTSASPQGAFSLSGYNRVMRAAEETTSNNVFPFKIIHISKKHRTWFFSASSEDERKSWMAFVRREIGHFHEKKELPLDTSDSSSDTDSFYGAVERPIDISLSSYPMDNEDYEHEDEDDSYLEPDSPGPMKLEDALTYPPAYPPPPVPVPRKPAFSDLPRAHSFTSKSPSPLLPPPPPKRGLPDTGSAPEDAKDALGLRRVEPGLRVPATPRRMSDPPMSNVPTVPNLRKHPCFRDSVNPGLEPWTPGHGTSSVSSSTTMAVATSRNCDKLKSFHLSSRGPPTSEPPPVPANKPKFLKIAEEPSPREAAKFAPVPPVAPRPPVQKMPMPEATVRPAVLPRPENTPLPHLQRSPPDGQSFRGFSFEKARQPSQADTGEEDSDEDYEKVPLPNSVFVNTTESCEVERLFKATDPRGEPQDGLYCIRNSSTKSGKVLVVWDESSNKVRNYRIFEKDSKFYLEGEVLFASVGSMVEHYHTHVLPSHQSLLLRHPYGYAGPR

The first assay covers variants of B1. To be noted: with rn146_human RNF146, Q9NTX7.
rn146_human RNF146, Q9NTX7, sequence (Q9NTX7 whole entry): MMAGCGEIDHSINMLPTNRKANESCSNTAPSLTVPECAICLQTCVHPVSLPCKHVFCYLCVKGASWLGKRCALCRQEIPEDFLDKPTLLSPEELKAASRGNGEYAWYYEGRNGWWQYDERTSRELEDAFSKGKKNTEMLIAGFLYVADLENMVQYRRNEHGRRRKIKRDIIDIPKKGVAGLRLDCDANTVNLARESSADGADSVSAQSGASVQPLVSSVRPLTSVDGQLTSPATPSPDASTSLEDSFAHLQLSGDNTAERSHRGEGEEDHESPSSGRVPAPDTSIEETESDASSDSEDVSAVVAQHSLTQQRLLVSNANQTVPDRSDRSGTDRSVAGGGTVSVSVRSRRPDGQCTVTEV
MAAEEMQWPVPMKAIGAQNLLTMPGGVAKAGYLHKKGGTQLQLLKWPLRFVIIHKRCIYYFKSSTSASPQGAFSLSGYNRVMRAAEETTSNNVFPFKIIHISKKHRTWFFSASSEDERKSWMAFVRREIGHFHEKKELPLDTSDSSSDTDSFYGAVERPIDISLSSYPMDNEDYEHEDEDDSYLEPDSPGPMKLEDALTYPPAYPPPPVPVPRKPAFSDLPRAHSFTSKSPSPLLPPPPPKRGLPDTGSAPEDAKDALGLRRVEPGLRVPATPRRMSDPPMSNVPTVPNLRKHPCFRDSVNPGLEPWTPGHGTSSVSSSTTMAVATSRNCDKLKSFHLSSRGPPTSEPPPVPANKPKFLKIAEEPSPREAAKFAPVPPVAPRPPVQKMPMPEATVRPAVLPRPENTPLPHLQQSPPDGQSFRGFSFEKARQPSQADTGEEDSDEDYEKVPLPNSVFVNTTESCEVERLFKATDPRGEPQDGLYCIRNSSTKSGKVLVVWDESSNKVRNYRIFEKDSKFYLEGEVLFASVGSMVEHYHTHVLPSHQSLLLRHPYGYAGPR [R413Q]: the “effect of a mutation on the interaction” value was “decreasing interaction”.

In the next assay the parent is B1. To be noted: with tnks1_human TNKS.
On to MAAEEMQWPVPMKAIGAQNLLTMPGGVAKAGYLHKKGGTQLQLLKWPLRFVIIHKRCIYYFKSSTSASPQGAFSLSGYNRVMRAAEETTSNNVFPFKIIHISKKHRTWFFSASSEDERKSWMAFVRREIGHFHEKKELPLDTSDSSSDTDSFYGAVERPIDISLSSYPMDNEDYEHEDEDDSYLEPDSPGPMKLEDALTYPPAYPPPPVPVPRKPAFSDLPRAHSFTSKSPSPLLPPPPPKRGLPDTGSAPEDAKDALGLRRVEPGLRVPATPRRMSDPPMSNVPTVPNLRKHPCFRDSVNPGLEPWTPGHGTSSVSSSTTMAVATSRNCDKLKSFHLSSRGPPTSEPPPVPANKPKFLKIAEEPSPREAAKFAPVPPVAPRPPVQKMPMPEATVRPAVLPRPENTPLPHLQQSPPDGQSFRGFSFEKARQPSQADTGEEDSDEDYEKVPLPNSVFVNTTESCEVERLFKATDPRGEPQDGLYCIRNSSTKSGKVLVVWDESSNKVRNYRIFEKDSKFYLEGEVLFASVGSMVEHYHTHVLPSHQSLLLRHPYGYAGPR [R413Q], for which the “effect of a mutation on the interaction” value is recorded as “disrupting interaction”.

The record behind these values is IntAct's records for PubMed 22153076.
